According to paper PMC11879393 (Nucleic Acids Research, 2025):

T1: Rec27 (untagged, His6-SUMO tag removed by Ulp1) (S. pombe, UniProt Q9USR4 1-125)
T1 sequence (looked up): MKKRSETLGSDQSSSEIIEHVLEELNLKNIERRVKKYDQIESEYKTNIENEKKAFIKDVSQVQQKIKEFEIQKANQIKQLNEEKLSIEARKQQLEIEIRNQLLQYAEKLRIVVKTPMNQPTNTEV


Target: T1, Rec27 (untagged, His6-SUMO tag removed …)
Assay: mass photometry

Row | stoichiometry N | Binder
1 | 1 | Mug20 (untagged) (natural protein, S. pombe, UniProt Q9HGN4 1-151, looked up) MSEIITSLQTELSNRHANMVSEAVLAFSEHHDSALHSYFLNARVKDVILESLRTTEEKLRALDKLQLDASKNLSNLLVEYNSINAELESVNSKISSISSQEYALEEFQALSQNFEKNLVQHRRNSQNKLKCAMEKLKMIETSTHKAILDNF
2 | 1 | Rec25 (untagged) (natural protein, S. pombe, UniProt Q9C115 1-150, looked up) MVKGSVTNTSSIVKQFEKSSIKHETETIAFAKQFINECIREFQEQKDNVVEEKNTDQNHQNQNQEGVIIEIYQELLQKVDLISSELRQNLSSLQLRFQEVERDTGHDLLNVLNSLSQEARLAQKVLEEDGSQQGSQLIQGLLTCFQSTGN
